# Publication PMC9508819, “Rbp95 binds to 25S rRNA helix H95 and cooperates with the Npa1 complex during early pre-60S particle maturation”
# Key:
# Rbp95 183-end = target: T1, Rbp95 183-end (Saccharomyces cerevisiae, UniProt P25617 183-290); test: EMSA; 100- or 500-fold excess; not sufficient for binding; EMSA: 25 mM Tris-HCl pH 7.5, 75 mM NaCl, 2.5 mM MgCl2, 3.5% glycerol, 0.025% Tween 20, 0.5 mM DTT, 5 nM Cy5-RNA, 30 min at RT; 4-20% TBE gel; settings: protein: recombinant; tags: N-terminal His6; label: 5'-Cy5; hairpin
# T1 sequence: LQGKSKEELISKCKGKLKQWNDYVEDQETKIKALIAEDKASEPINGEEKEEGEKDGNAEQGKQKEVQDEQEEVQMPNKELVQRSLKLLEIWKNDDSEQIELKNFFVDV
# Rbp95 full length [1] = target: T2, Rbp95 full length (Saccharomyces cerevisiae, UniProt P25617 1-290); test: EMSA; 5 nM RNA; shift starts at 1.5-fold excess of Rbp95; EMSA: 25 mM Tris-HCl pH 7.5, 75 mM NaCl, 2.5 mM MgCl2, 3.5% glycerol, 0.025% Tween 20, 0.5 mM DTT, 5 nM Cy5-RNA, 30 min at RT; 4-20% TBE gel; settings: protein: recombinant; tags: N-terminal His6; label: 5'-Cy5; hairpin
# T2 sequence: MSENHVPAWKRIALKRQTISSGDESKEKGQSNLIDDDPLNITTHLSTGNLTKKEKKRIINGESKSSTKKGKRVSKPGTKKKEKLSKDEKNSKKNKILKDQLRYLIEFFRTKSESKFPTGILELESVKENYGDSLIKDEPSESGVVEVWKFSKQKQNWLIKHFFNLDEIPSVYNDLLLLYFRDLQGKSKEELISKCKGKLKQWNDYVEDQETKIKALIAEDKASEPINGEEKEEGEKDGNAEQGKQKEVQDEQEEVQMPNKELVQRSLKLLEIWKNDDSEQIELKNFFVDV
# Rbp95 1-85 = target: T3, Rbp95 1-85 (Saccharomyces cerevisiae, UniProt P25617 1-85); test: EMSA; 100- or 500-fold excess; strong shift, slightly more protein needed than full length; EMSA: 25 mM Tris-HCl pH 7.5, 75 mM NaCl, 2.5 mM MgCl2, 3.5% glycerol, 0.025% Tween 20, 0.5 mM DTT, 5 nM Cy5-RNA, 30 min at RT; 4-20% TBE gel; settings: protein: recombinant; tags: N-terminal His6; label: 5'-Cy5; hairpin
# T3 sequence: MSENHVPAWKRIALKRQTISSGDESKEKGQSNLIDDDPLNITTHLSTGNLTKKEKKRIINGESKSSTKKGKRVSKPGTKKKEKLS
# Rbp95 full length [2] = target: T2, Rbp95 full length; test: competition; 20-100-fold excess over Cy5-H95; reverts shift; EMSA: 25 mM Tris-HCl pH 7.5, 75 mM NaCl, 2.5 mM MgCl2, 3.5% glycerol, 0.025% Tween 20, 0.5 mM DTT, 5 nM Cy5-RNA, 30 min at RT; 4-20% TBE gel; settings: protein: recombinant; tags: N-terminal His6; hairpin
# Rbp95 full length [3] = target: T2, Rbp95 full length; test: EMSA; 5 nM RNA; shift starts at 1.5-fold excess; similar to H95; EMSA: 25 mM Tris-HCl pH 7.5, 75 mM NaCl, 2.5 mM MgCl2, 3.5% glycerol, 0.025% Tween 20, 0.5 mM DTT, 5 nM Cy5-RNA, 30 min at RT; 4-20% TBE gel; settings: protein: recombinant; tags: N-terminal His6; label: 5'-Cy5; hairpin
binder,measurement,setting,value
AAAGGGAAUUGAACUUAGUACGAGAGGAACAGUUCAUUUCCC (structured_RNA) [helix H95 (25S rRNA)],binding result,Rbp95 183-end,no binding
same,binding result,Rbp95 full length [1],binds
same,binding result,Rbp95 1-85,binds
AAAGGGAAUUGAACUUAGUACGAGAGGAACAGUUCAUUUCCC (structured_RNA) [helix H95 unlabeled competitor],binding result,Rbp95 full length [2],binds
AAAGGGCGUCAGGGUUGAUAUGAUGCCCUGACGCCC (structured_RNA) [helix H45 (25S rRNA)],binding result,Rbp95 full length [3],binds
